Reference: the Immune Epitope Database (IEDB)

What was measured:
HLA-A*68:02 = assay: IEDB peptide-MHC binding, cellular MHC/competitive/fluorescence; ≥ and ≤ were set here for values at or beyond the usual limits of such assays
HLA-A*02:01 = assay: IEDB peptide-MHC binding, purified MHC/competitive/radioactivity; ≥ and ≤ were set here for values at or beyond the usual limits of such assays
HLA-A*02:02 = assay: as above
HLA-A*02:03 = assay: as above
HLA-A*02:06 = assay: as above
[1] = source organism: Vaccinia virus WR
[2] = source organism: Hepacivirus hominis
[3] = source organism: Influenza A virus
[4] = source organism: Mammarenavirus lassaense
[5] = source organism: Mammarenavirus choriomeningitidis

Sequence	IC50 (HLA-A*68:02; [1])	IC50 (HLA-A*02:01; [1])	IC50 (HLA-A*02:02; [1])	IC50 (HLA-A*02:03; [1])	IC50 (HLA-A*02:06; [1])	further results
ALALEQYGI	40400 nM	30 nM	0.69 nM	40 nM	548 nM	–
CLWWTCYMLV	–	–	–	–	–	IC50 (HLA-A*68:02; [2]): 10300 nM; IC50 (HLA-A*02:01; [2]): 271 nM; IC50 (HLA-A*02:02; [2]): 1870 nM; IC50 (HLA-A*02:03; [2]): 891 nM; IC50 (HLA-A*02:06; [2]): 2700 nM
AMDSNTLEL	–	–	–	–	–	IC50 (HLA-A*68:02; [3]): ≥ 70000 nM; IC50 (HLA-A*02:02; [3]): 254 nM; IC50 (HLA-A*02:03; [3]): 524 nM; IC50 (HLA-A*02:06; [3]): 1950 nM
CLLTDTIESA	22200 nM	188 nM	53 nM	102 nM	92 nM	–
ILSNKLLYAA	12000 nM	51 nM	8.1 nM	1110 nM	150 nM	–
FLMSFTILCL	–	–	–	–	–	IC50 (HLA-A*68:02; source organism: SARS-CoV1): 7570 nM; IC50 (HLA-A*02:01; source organism: SARS-CoV1): 9.2 nM; IC50 (HLA-A*02:02; source organism: SARS-CoV1): 0.82 nM; IC50 (HLA-A*02:03; source organism: SARS-CoV1): 213 nM; IC50 (HLA-A*02:06; source organism: SARS-CoV1): 74 nM
HLDGEVLSL	–	–	–	–	–	IC50 (HLA-A*68:02; source organism: SARS-CoV1): 13600 nM; IC50 (HLA-A*02:01; source organism: SARS-CoV1): 67 nM; IC50 (HLA-A*02:02; source organism: SARS-CoV1): 66 nM; IC50 (HLA-A*02:03; source organism: SARS-CoV1): 131 nM; IC50 (HLA-A*02:06; source organism: SARS-CoV1): 160 nM
QLVKDESIQL	7940 nM	916 nM	157 nM	130 nM	1810 nM	–
RLFTRCAVI	6640 nM	209 nM	94 nM	249 nM	2820 nM	–
DMLKLFTHDI	6410 nM	1450 nM	196 nM	16 nM	2970 nM	–
ILLSRCLWWT	–	–	–	–	–	IC50 (HLA-A*68:02; [2]): ≥ 70000 nM; IC50 (HLA-A*02:01; [2]): 293 nM; IC50 (HLA-A*02:02; [2]): 4740 nM; IC50 (HLA-A*02:03; [2]): 1100 nM; IC50 (HLA-A*02:06; [2]): 246 nM
LNISGYNFSL	–	–	–	–	–	IC50 (HLA-A*68:02; [4]): 6000 nM; IC50 (HLA-A*02:01; [4]): 375 nM; IC50 (HLA-A*02:02; [4]): 16 nM; IC50 (HLA-A*02:03; [4]): 4550 nM; IC50 (HLA-A*02:06; [4]): 421 nM
ILGFVFTLTV	–	–	–	–	–	IC50 (HLA-A*68:02; [3]): 5020 nM
MLVNGDDLVV	–	–	–	–	–	IC50 (HLA-A*68:02; [2]): 8980 nM; IC50 (HLA-A*02:01; [2]): 56 nM; IC50 (HLA-A*02:02; [2]): 54 nM; IC50 (HLA-A*02:03; [2]): 104 nM; IC50 (HLA-A*02:06; [2]): 186 nM
YLSGTDDEVI	15800 nM	220 nM	6.3 nM	211 nM	947 nM	–
GMSIVCIVA	9840 nM	83 nM	190 nM	656 nM	4510 nM	–
VMPEKRNVV	6590 nM	495 nM	1100 nM	23 nM	3290 nM	–
ALLFLMSFT	–	–	–	–	–	IC50 (HLA-A*68:02; source organism: SARS-CoV1): 16000 nM; IC50 (HLA-A*02:01; source organism: SARS-CoV1): 406 nM; IC50 (HLA-A*02:02; source organism: SARS-CoV1): 2830 nM; IC50 (HLA-A*02:03; source organism: SARS-CoV1): 1990 nM; IC50 (HLA-A*02:06; source organism: SARS-CoV1): 128 nM

Sequence	IC50 (HLA-A*68:02; [1])	IC50 (HLA-A*02:01; [1])	IC50 (HLA-A*02:02; [1])	IC50 (HLA-A*02:03; [1])	IC50 (HLA-A*02:06; [1])	further results
FMLNVSYLC	–	–	–	–	–	IC50 (HLA-A*68:02; [5]): 8480 nM; IC50 (HLA-A*02:01; [5]): 1050 nM; IC50 (HLA-A*02:02; [5]): 196 nM; IC50 (HLA-A*02:03; [5]): 1260 nM; IC50 (HLA-A*02:06; [5]): 932 nM
RLVPGATYAL	–	–	–	–	–	IC50 (HLA-A*68:02; [2]): 45800 nM; IC50 (HLA-A*02:01; [2]): 150 nM; IC50 (HLA-A*02:02; [2]): 12 nM; IC50 (HLA-A*02:03; [2]): 834 nM; IC50 (HLA-A*02:06; [2]): 834 nM
GLCNYGGIL	≥ 70000 nM	412 nM	98 nM	125 nM	1360 nM	–
RLHGLEAFSL	–	–	–	–	–	IC50 (HLA-A*68:02; [2]): 18500 nM; IC50 (HLA-A*02:01; [2]): 224 nM; IC50 (HLA-A*02:02; [2]): 35 nM; IC50 (HLA-A*02:03; [2]): 602 nM; IC50 (HLA-A*02:06; [2]): 649 nM
GLKIEEIEKV	≥ 70000 nM	65 nM	15 nM	6.6 nM	198 nM	–
DLLFNEKLKV	9970 nM	149 nM	357 nM	317 nM	2020 nM	–
FLYIIKLVFL	–	–	–	–	–	IC50 (HLA-A*68:02; source organism: SARS-CoV1): 26400 nM; IC50 (HLA-A*02:01; source organism: SARS-CoV1): 19 nM; IC50 (HLA-A*02:02; source organism: SARS-CoV1): 7.3 nM; IC50 (HLA-A*02:03; source organism: SARS-CoV1): 22 nM; IC50 (HLA-A*02:06; source organism: SARS-CoV1): 865 nM
IVSHLRASTT	60600 nM	896 nM	139 nM	111 nM	173 nM	–
LMYKGLPWNV	–	–	–	–	–	IC50 (HLA-A*68:02; source organism: SARS-CoV1): 5400 nM; IC50 (HLA-A*02:02; source organism: SARS-CoV1): 1.8 nM; IC50 (HLA-A*02:03; source organism: SARS-CoV1): 5.3 nM; IC50 (HLA-A*02:06; source organism: SARS-CoV1): 37 nM
LILSNKLLYA	9790 nM	169 nM	468 nM	122 nM	36 nM	–
ILFLTLIVFT	–	–	–	–	–	IC50 (HLA-A*68:02; source organism: SARS-CoV1): 7110 nM; IC50 (HLA-A*02:01; source organism: SARS-CoV1): 21 nM; IC50 (HLA-A*02:02; source organism: SARS-CoV1): 24 nM; IC50 (HLA-A*02:03; source organism: SARS-CoV1): 1070 nM; IC50 (HLA-A*02:06; source organism: SARS-CoV1): 703 nM
MLLIAQAEA	–	–	–	–	–	IC50 (HLA-A*68:02; [2]): 6150 nM; IC50 (HLA-A*02:01; [2]): 82 nM; IC50 (HLA-A*02:02; [2]): 141 nM; IC50 (HLA-A*02:03; [2]): 123 nM; IC50 (HLA-A*02:06; [2]): 645 nM
IMEIVSHLRA	19700 nM	1190 nM	955 nM	396 nM	4410 nM	–
ALCKVTVPT	≥ 70000 nM	–	110 nM	130 nM	210 nM	–
LLDDFVEII	–	–	–	–	–	IC50 (HLA-A*68:02; source organism: SARS-CoV1): 30200 nM; IC50 (HLA-A*02:01; source organism: SARS-CoV1): 51 nM; IC50 (HLA-A*02:02; source organism: SARS-CoV1): 136 nM; IC50 (HLA-A*02:03; source organism: SARS-CoV1): 523 nM; IC50 (HLA-A*02:06; source organism: SARS-CoV1): 159 nM
SLVYGIRCV	51400 nM	301 nM	2940 nM	3.8 nM	168 nM	–
AIYVFCISL	–	–	–	–	–	IC50 (HLA-A*68:02; source organism: SARS-CoV1): 5470 nM; IC50 (HLA-A*02:01; source organism: SARS-CoV1): 119 nM; IC50 (HLA-A*02:02; source organism: SARS-CoV1): 143 nM; IC50 (HLA-A*02:03; source organism: SARS-CoV1): 201 nM; IC50 (HLA-A*02:06; source organism: SARS-CoV1): 48 nM
